Molecular target: Photosystem II core complex from solubilized grana (SG-PSII) (Nicotiana tabacum (endogenous in thylakoids) | Nicotiana tabacum) (UniProt P69556)
Experiment: SEC + native gel or EMSA; Ni-NTA-purified PSII pools on Superose 6 in 40 mM MES-NaOH pH 6.5, 20 mM NaCl, 5 mM MgCl2, 1 mM CaCl2, 10 mM NaHCO3, 0.01% β-DDM; pools and fractions checked by BN-PAGE (3-12% gradient, 4°C); C2 also seen by negative-stain TEM

Photosystem II core complex from solubilized grana (SG-PSII) (from UniProt P69556 1-344; P06411 1-508; P06413 15-473; P69686 1-353; P69384 1-83; P06415 1-73; P60139 1-38; Q40519 38-136)
stoichiometry N: 2

Reference: paper PMC4674563
